Source: patent US20100222559, “NUCLEIC ACID MOLECULE CAPABLE OF BINDING TO RABBIT-DERIVED lgG ANTIBODY” (published 2010)

What was measured:
[1] = tested on: rabbit anti-mouse IgG antibody (Oryctolagus cuniculus); test: SPR; settings: RNA with 5' A24 extension captured on biotin-dT24 SA chip; 25 C
[2] = tested on: rabbit anti-GST antibody (IgG) (Oryctolagus cuniculus); test: filter; settings: 20 nM RNA, 100 nM protein
[3] = tested on: mouse IgG (Mus musculus); test: filter; settings: specificity control, 100 nM protein
[4] = tested on: rabbit anti-mouse IgG antibody (Oryctolagus cuniculus); test: filter; settings: 20 nM RNA, 100 nM protein, 5 mM MgCl2, RT
[5] = tested on: rabbit anti-GST IgG + glutathione-S-transferase (mixture) (Oryctolagus cuniculus / Schistosoma japonicum); test: filter; settings: 100 nM GST + 100 nM anti-GST IgG
[6] = tested on: goat IgG (Capra hircus); test: filter; settings: specificity control, 100 nM protein
[7] = molecular target: glutathione-S-transferase (GST) (Schistosoma japonicum, UniProt P08515 P08515:2-218); test: filter; specificity control, 100 nM protein; settings: tags: prepared in laboratory from GE vector; chain copies: 2; label: 32P (filter assay)
Description: (§1) The RNAs (20 nM) set forth in SEQ ID NOS: 1 to 5, and the materials (100 nM each) shown in “Material List” below, were incubated in a binding buffer, and then, their binding strength was measured in accordance with the methods described in “Radiolabeling” and “Binding Experiment” below.
(§2) The resulting mixture was introduced onto a filter (trade name: MF-membrane filter, manufactured by Millipore) by way of suctioning it with a suction device, and then, the filter was washed with a binding buffer that was 20 times the volume of the mixture. The radiation intensity of the filter obtained in this manner was measured with a Bio-Imaging Analyzer BAS-2500 (using, as an imaging plate, BAS-MS2040 manufactured by Fuji Film Co., Ltd.) manufactured by Fuji Film Co., Ltd. The radiation intensity was visualized with Image Reader (Fuji Film Co., Ltd.), and the obtained data were converted into numerical values with Image Gauge ver. 4.0 (Fuji Film Co., Ltd.).

[8] = molecular target: bovine serum albumin (Bos taurus, UniProt P02769 P02769:25-607); test: filter; specificity control, 100 nM protein; buffer only 0.3%; settings: tags: SIGMA; label: 32P (filter assay)
Description: as §1, §2

Sequence of bovine serum albumin (P02769 25-607, one chain of several): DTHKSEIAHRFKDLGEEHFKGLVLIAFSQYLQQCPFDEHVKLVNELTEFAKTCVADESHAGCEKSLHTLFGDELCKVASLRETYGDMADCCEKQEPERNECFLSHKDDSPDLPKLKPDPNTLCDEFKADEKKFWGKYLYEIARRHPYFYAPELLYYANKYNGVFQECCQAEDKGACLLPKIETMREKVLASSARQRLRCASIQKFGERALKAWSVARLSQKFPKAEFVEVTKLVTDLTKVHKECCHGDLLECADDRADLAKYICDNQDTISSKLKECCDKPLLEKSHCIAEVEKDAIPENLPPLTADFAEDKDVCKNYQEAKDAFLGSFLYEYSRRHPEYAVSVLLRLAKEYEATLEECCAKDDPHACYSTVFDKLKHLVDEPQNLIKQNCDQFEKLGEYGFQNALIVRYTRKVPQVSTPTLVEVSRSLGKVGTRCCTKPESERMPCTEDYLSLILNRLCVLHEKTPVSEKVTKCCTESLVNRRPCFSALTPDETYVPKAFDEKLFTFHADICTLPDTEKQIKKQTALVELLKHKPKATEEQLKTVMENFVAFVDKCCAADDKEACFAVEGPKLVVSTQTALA
Sequence of glutathione-S-transferase (GST) (P08515 2-218, one chain of several): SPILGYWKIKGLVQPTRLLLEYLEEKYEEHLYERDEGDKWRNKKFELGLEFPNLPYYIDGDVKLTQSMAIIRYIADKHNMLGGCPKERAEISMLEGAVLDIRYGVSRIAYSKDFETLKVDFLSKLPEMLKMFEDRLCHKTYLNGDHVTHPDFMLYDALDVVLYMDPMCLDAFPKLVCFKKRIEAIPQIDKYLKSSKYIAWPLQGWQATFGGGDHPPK

## GGGAGAAUUCCGACCAGAAGCAAAUUGCCGGGCCUUGGAAGCCAAGUCGCUUUCCUCUCUCCUCCUUCUUCU [SEQ ID NO: 3 RNA aptamer]
[1]
  Kd: 118 nM
[2]; buffer only 0.3%
  binding signal: 20.9 % bound
[3]
  binding signal: 1.8 % bound
[4]
  binding signal: 20.9 % bound
[5]
  binding signal: 14.4 % bound
[6]
  binding signal: 1 % bound

## GGGAGAAUUCCGACCAGAAGCGCAAGCCGGCCCUUGGAAGGCUAGUCGGUCUUUCCUCUCUCCUCCUUCUUCU [SEQ ID NO: 4 RNA aptamer]
[1]
  Kd: 103 nM
[2]; buffer only 0.3%
  binding signal: 23.4 % bound
[3]
  binding signal: 0.5 % bound
[4]
  binding signal: 23.4 % bound
[5]
  binding signal: 20.7 % bound
[6]
  binding signal: 0.3 % bound

## GGGAGAAUUCCGACCAGAAGUUUUUAAACCGCGCCUUGGAAGCGUACGUUGGCCUUUCCUCUCUCCUCCUUCUUCU [SEQ ID NO: 2 RNA aptamer]
[1]
  Kd: 51.5 nM
[2]; buffer only 0.4%
  binding signal: 24.6 % bound
[3]
  binding signal: 0.5 % bound
[4]
  binding signal: 24.6 % bound
[5]
  binding signal: 14.2 % bound
[6]
  binding signal: 0.7 % bound

## GGGAGAAUUCCGACCAGAAGAAGUUCGAUACGCCGUGGGGUGACGUUGGCUGCCCUUUCCUCUCUCCUCCUUCUUCU [SEQ ID NO: 1 RNA aptamer]
[1]
  Kd: 0.013 nM
[2]; buffer only 0.2%
  binding signal: 19.1 % bound
[3]
  binding signal: 0.6 % bound
[4]; 50 mM HEPES pH 7.4, 150 mM NaCl
  binding signal: 19.1 % bound
[5]
  binding signal: 13.6 % bound
[6]
  binding signal: 0.8 % bound

## GGGAGAAUUCCGACCAGAAGUUCGAUACGCCGUGGGGUGACGUUGGCUACCUUUCCUCUCUCCUCCUUCUUCU [SEQ ID NO: 5 RNA aptamer]
[1]
  Kd: 0.0147 nM
[2]; buffer only 0.3%
  binding signal: 58.1 % bound
[3]
  binding signal: 0.5 % bound
[4]
  binding signal: 58.1 % bound
[5]
  binding signal: 48.8 % bound
[6]
  binding signal: 0.3 % bound

B1: SEQ ID NO: 5 RNA aptamer (ssRNA)
RNA: GGGAGAAUUCCGACCAGAAGUUCGAUACGCCGUGGGGUGACGUUGGCUACCUUUCCUCUCUCCUCCUUCUUCU
[7]
  binding signal: 0.6 % bound
[8]
  binding signal: 0.9 % bound

B2: SEQ ID NO: 3 RNA aptamer (ssRNA)
RNA: GGGAGAAUUCCGACCAGAAGCAAAUUGCCGGGCCUUGGAAGCCAAGUCGCUUUCCUCUCUCCUCCUUCUUCU
[7]
  binding signal: 0.6 % bound
[8]
  binding signal: 1 % bound

B3: SEQ ID NO: 2 RNA aptamer (ssRNA)
RNA: GGGAGAAUUCCGACCAGAAGUUUUUAAACCGCGCCUUGGAAGCGUACGUUGGCCUUUCCUCUCUCCUCCUUCUUCU
[7]
  binding signal: 0.6 % bound

B4: SEQ ID NO: 4 RNA aptamer (ssRNA)
RNA: GGGAGAAUUCCGACCAGAAGCGCAAGCCGGCCCUUGGAAGGCUAGUCGGUCUUUCCUCUCUCCUCCUUCUUCU
[7]
  binding signal: 0.4 % bound
[8]
  binding signal: 0.4 % bound

B5: SEQ ID NO: 1 RNA aptamer (ssRNA)
RNA: GGGAGAAUUCCGACCAGAAGAAGUUCGAUACGCCGUGGGGUGACGUUGGCUGCCCUUUCCUCUCUCCUCCUUCUUCU
[7]
  binding signal: 0.7 % bound
